Assay results: patent US8198235B2, “Use of GILZ protein expressed in dendritic cells to modulate an antigen-specific immune response” (Assistance Publique-Hopitaux de Paris, priority 2004, dated 2012)

Assays:
Type in all cases: cell-based, human
[1] = tested on: GILZ gene; test: Quantitative RT-PCR analysis of GILZ gene expression in monocyte derived dendritic cells; conditions: added on fifth day of culture; Dex 10^-7 M, IL-10 100 ng/ml, TGFβ 20 ng/ml; detected before and after CD40L
Method: (§1) Immature monocyte derived dendritic cells (iMDDCs) were prepared as described in Palucka et al., J. Immunol., 1998, 160, 4587-4595, apart from minor modifications. Briefly, human monocytes were isolated from the peripheral blood mononucleocell fraction by negative selection, according to the manufacturer's (DYNAL) recommendations. The monocytes (1 to 2×10^5 cells/ml) were cultured for 7 days in the presence of GM-CSF and IL-4 (100 ng/ml and 50 ng/ml, respectively, SCHERING-PLOUGH). The maturation of the dendritic cells (MDDCs) was induced in the presence of CD40L (250 ng/ml; IMMUNEX). Dexamethasone (DEX, SIGMA), recombinant human IL-10 (rhIL-10, DNAX) and TGFβ (R&D) were used at the following respective concentrations: 10^−7 M, 100 ng/ml and 20 ng/ml. For the in vivo experiments, the antigen-presenting cells (APCs) were purified using the monocyte negative selection kit according to the manufacturer's (DYNAL) recommendations.
The expression of the human GILZ gene was analyzed by real time RT-PCR according to the manufacturer's recommendations (Lightcycler™, ROCHE), using the pair of primers described in Berrebi et al. BLOOD, 2003, 101, 729-738 and the human β-actin gene as internal control.

[2] = tested on: regulatory T lymphocytes; test: Induction of regulatory T cells: sensitized CD4+ T cells added to autologous PBMCs stimulated with PPD or CMV; conditions: CD4+ T sensitized with PPD-loaded dendritic cells treated with dexamethasone and control siRNA
Description: To evaluate the induction of the regulatory T cells (Tregs), immature monocyte-derived dendritic cells treated on the fifth day of culture (D5) with a controlled siRNA or an siRNA targeting GILZ (siRNA GILZ) alone, or else with either dexamethasone (DEX) or IL-10, or not treated, and then treated with the PPD on D7, were cocultured with CD4^+ T cells, as described in example 2. The CD4^+ T cells were purified on the seventh day of DC-CD4^+ T coculture and added in increasing amounts to 10^5 autologous PBMCs stimulated with PPD (1 μg/ml, STATENS SERUM INSTITUTE) or the cytomegalovirus (CMV, 25 μg/ml, BEHRING).
The hypothesis that the GILZ-expressing dendritic cells inhibit the CD4^+ T lymphocyte response by inducing regulatory T lymphocytes during antigen presentation was verified experimentally. Dendritic cells were treated with a control or anti-GILZ siRNA, alone or with dexamethasone, and with PPD (first culture). After washing, the dendritic cells were used to stimulate autologous CD4^+ T lymphocytes. The CD4^+ T lymphocytes of this second culture (sensitized CD4^+ T lymphocytes) were purified and added in increasing amounts to autologous PBMCs stimulated either with PPD or with CMV (third culture). The CD4^+ T lymphocytes sensitized with nontreated dendritic cells or dendritic cells treated with a control siRNA have no effect on the proliferative response of the third culture. […]

[3] = tested on: monocyte derived dendritic cells; test: Dendritic cell phenotype by flow cytometry (CD80, CD83, CD86, B7-H1); conditions: treated D5, CD40L D7, phenotype D9
Method: as §1
The dendritic cell phenotype was analyzed by four-color flow cytometry, using the following monoclonal antibodies: phycoerythrin-coupled anti-CD83 (CD83-PE, COULTER); phycoerythrin-coupled anti-CD80 (CD80-PE, BD BIOSCIENCES); anti-B7-H1 (CLINISCIENCES) and phycoerythrin-coupled anti-CD86 (CD86-PE, BD PHARMINGEN). The anti-B7-H1 antibody is detected using a phycoerythrin-coupled secondary antibody (BD PHARMINGEN). […]

[4] = tested on: CCL3, CCL5 and CXCL8; test: Chemokine ELISA in dendritic cell culture supernatant after CD40L; conditions: dendritic cells treated before addition of CD40L
Method: as §1
The production of chemokines in the culture supernatant of the dendritic cells was analyzed using ELISA kits (R&D SYSTEMS) according to the manufacturer's instructions.

Row | Molecule | expression of GILZ (RT-PCR) [1] | anti-CMV response of the third culture [2] | expression of B7-H1 [3] | expression of CD80, CD83 and CD86 [3] | CD40L-induced production of the chemokines CCL3, CCL5 and CXCL8 [4]
1 | TGFβ | stimulates the expression of GILZ |  |  |  | 
2 | C[C@@H]1C[C@H]2[C@@H]3CCC4=CC(=O)C=C[C@]4(C)[C@@]3(F)[C@@H](O)C[C@]2(C)[C@@]1(O)C(=O)CO [dexamethasone] |  | no effect |  |  | 
3 | IL-10: recombinant human IL-10 (rhIL-10, DNAX) (protein, UniProt P22301 19-178, looked up) Interleukin-10: SPGQGTQSENSCTHFPGNLPNMLRDLRDAFSRVKTFFQMKDQLDNLLLKESLLEDFKGYLGCQALSEMIQFYLEEVMPQAENQDPDIKAHVNSLGENLKTLRLRLRRCHRFLPCENKSKAVEQVKNAFNKLQEKGIYKAMSEFDIFINYIEAYMTMKIRN | stimulates the expression of GILZ |  | stimulate | inhibit | partially inhibited
